# The DeepSol protein solubility set
# Assay: soluble on expression in E. coli; label from the status in PepcDB or PDB records
row,Sequence,soluble on expression in E. coli
1,ATGGGTAATAATTTAATGCAGACGGACCTTTCCGTCTGGGGTATGTATCARCACGCCGATATTGTCGTTAAGTGCGTGATGATTGGGCTTATTTTGGCCTCCGTAGTCACCTGGGCAATCTTCTTCAGTAAGAGCGTAGAGTTCTTTAATCAGAAGCGTCGCCTTAAGCGCGAGCAGCAACTGCTGGCTGAAGCGCGTTCCTTAAACCAGGCCAACGATATCGCCGCTGATTTTGGTAGCAAAAGCTTAAGCCTGCATTTGCTCAATGAAGCGCAGAATGAGCTGGAACTGTCAGAAGGCAGCGACGATAACGAAGGTATTAAAGAACGTACCAGCTTCCGTCTGGAGCGTCGGGTCGCCGCAGTAGGTCGTCAAATGGGCCGCGGTAACGGCTATCTGGCAACCATCGGCGCGATTTCGCCGTTCGTTGGGCTGTTTGGTACGGTCTGGGGCATCATGAACAGCTTTATTGGTATCGCGCAAACGCAGACCACTAACCTGGCAGTCGTTGCGCCGGGTATCGCAGAAGCTCTGTTAGCAACGGCAATCGGTCTGGTGGCAGCGATTCCGGCGGTCGTTATCTATAACGTATTCGCGCGTCAGATTGGCGGCTTTAAAGCGATGCTGGGTGATGTCGCAGCGCAGGTATTGTTGCTGCAAAGCCGTGACCTGGATCTGGAAGCCAGCGCCGCTGCGCATCCGGTTCGTGTCGCACAAAAATTACGCGCAGGATAA,not soluble
2,AVCDTPHERLTILYTKILDLLKHFPKHAAYRKYTEQITSEKLELVKLEPDVKKLENLLQGG,soluble
3,AWKGEVLANNEAGQVTSIIYNPGDVITIVAAGWASYGPTQKWGPQGDREHPDQGLICHDAFCGALVMKIGNSGTIPVNTGLFRWVAPNNVQGAITLIYNDVPGTYGNNSGSFSVNIGKDQS,soluble
4,AWVDQTPRSVTKETGESLTINCALKNAADDLERTDWYRTTLGSTNEQKISIGGRYVETVNKGSKSFSLRIRDLRVEDSGTYKCGAYFSDAMSNYSYPIPGEKGAGTVLTVKAA,soluble
5,AWVDQTPRTATKETGESLTINCVLRDASYGLESTGWYRTKLGSTNEQTISIGGRYVETVNKGSKSFSLRIRDLRVEDSGTYKCGAFRFWLPYGYGSLPLSEKGAGTVLTVK,soluble
6,CDAGRAKDKANEMMQGGNSLFGAMEGGTKEQVVLDMIDLGEHDAKTLLECEYETLGIHVSGNPLDEFKEEIKGFKNLVKSIDIEELEIGS,not soluble
7,CIIDKVTAVRRLNVLTLNVHKGFTFFNRRFILPELREAVRATGADLVFLQEVHGSHQQHALRHPAWPETPQYEFLADSMWPQFAYGRNAVYPHGDHGNALLSKFPIRRFNNLDVSVQGNEQRGLLHCQLEVPGHDEVHAVCVHLGLREAHRQRQVKLMLDLLASLPPNAPVIIAGDFNDWRLKADAVLSEHLTEAFGTPARSFPARLPLLRLDRIYLRNAVPGAAQVLSKYPWSHLSDHVPLAAEINL,not soluble
8,CSEPYEGKVAVASVILNRLQNPEFPKSIGDVIKQKYAFSCIRDGKIEVTPNQECYNAVMDALHGKDPTPKAMYFYNPRISTSSWMNNIQKENVKVIGNHVFFKTYKE,not soluble
9,DAAPAAGSTLDKIAKNGVIVVGHRESSVPFSYYDNQQKVVGYSQDYSNAIVEAVKKKLNKPDLQVKLIPITSQNRIPLLQNGTFDFECGSTTNNVERQKQAAFSDTIFVVGTRLLTKKGGDIKDFADLKGKAVVVTSGTTSEVLLNKLNEEQKMNMRIISAKDHGDSFRTLESGRAVAFMMDDALLAGERAKAKKPDNWDIVGKPQSQEAYGCMLRKDDPQFKKLMDDTIAQVQTSGEAEKWFDKWFKNPIPPKNLNMNFELSDEMKALFKEPNDKALNLEHHHHHH,soluble
10,DAARRGGAAGGGGPRSPRRSGPLGPHACPPALPEPKVTSTMSSQVVGIEPLYIKAEPASPDSPKGSSETETEPPVTLASGPAPARCLPGHKEEEDGEGAGSGEQGSGKLVLSSLPKRLCLVCGDVASGYHYGVASCEACKAFFKRTIQGSIEYSCPASNECEITKRRRKACQACRFTKCLRVGMLKEGVRLDRVRGGRQKYKRRPEVDPLPFPGPFPAGPLAVAGGPRKTAPVNALVSHLLVVEPEKLYAMPDPASPDGHLPAVATLCDLFDREIVVTISWAKSIPGFSSLSLSDQMSVLQSVWMEVLVLGVAQRSLPLQDELAFAEDLVLDEEGARAAGLGDLGAALLQLVRRLQALRLEREEYVLLKALALANSDSVHIEDAEAVEQLREALHEALLEYEAGRAGPGGGAERRRAGRLPCTLPLLRQTAGKVLAHFYGVKLEGKVPMHKLFLEMLEAMMD,soluble
11,DAPLNSVEGFIRQVLGWREFLRHVYRREMPSLAEANQLGANEALPDFYWNGDTDMACLSDVVDGVRERGYSHHIERLMILANFGLIYGVEPAQLNRWFHAGYVDAFHWVTTPNVVEMGLYGAGVFATKPYASSANYVDKMSDYCSGCPYYKTKTTGDGACPFNALYWDFLDRNEETLRSNHRMGLMYSHVDNKSDEELGEIRERAAEIREMATKGE,not soluble
12,DDKLRIGGTALFKRDRFVDNIGIEDSFFLKLMVDEMKQTTHQFQIDEDGEKAYVVVEKIFSSFNREMTGSMEAPHFRCHIHFRGEITDYTGPLTLTKDETMNKIEEGMARQIETKGEELLKRFQSLGIDPVGLGEKYRSHTRDWKPGVWHDSIYEQATVEVTAEVEIVQSGVTE,not soluble
13,DDYDQSLCSTGFYVVRSNQINPETLLTLFKSLPIQQLLKKACSGTILTGIGKQEFEKIPIPLIRPEVQEEIAQHVQRSFALRKEASELLEKAKLSVEYAIETGGGNSLIYSGLLNTLAKYERLAMWLLLKELGIVDESPNRQRVVTTEKRLSESFFTSGRLDAEYYQPKYDYLDAQFSSIPTKRLGDIVNIHKSIEPGSDAYQENGIPFVRVADLSKFGIETSSICLDSSTYSTAPRPRKNTILLSKDGSVGIAYKMEEDADIITSGAILHLSMKGKELLPDYLTLVLNSPIVRMQAERDAGGSIIQHWKPSEISQVIIPMLPVYIQQKLSDLVSKSFAFRRESKALLERAKAMVEQAIEFSA,not soluble
14,DIVMTQSPLSLPVTPGEPASISCRSSQSIVHSNGHTYLEWYLQKPGQSPRLLIYQVSTRFSGVPDRFSGSGSGTDFTLKISRVEAEDVGVYYCFQASLVPLTFGQGTKLEIKRTVAAPSVFIFPPSDEQLKSGTASVVCLLNNFYPREAKVQWKVDNALQSGNSQESVTEQDSKDSTYSLSSTLTLSKADYEKHKVYACEVTHQGLSSPVTKSFNRGECAAADYKDDDD,soluble
15,DKGTALLVNRSLRFGERTAEELMTPRVKIVTLSTTDTVADLIDTASRTGFSRFPVVESDLDDAVGVVHIKHAFAVPAHRRRTARLNSLAQKVPVVPSSLDGDALMERIRSDGMQVAFVVDEYGGTAGMVTMEDLIEEIVGDVR,not soluble
16,DKMTIEVPVLTFVPVQVSAELENRGCWVKFFDKKNFQGDSLFLSGPATLPRLIGPFGYDWENKVRSVKVGPRANLTIFDNHNYRDEDKFLDAGANVANLSKEMGFFDNFRSMVLNCI,soluble
17,DKVQNAVMQAMVRGSLNKDLAAQIKDLGKTTEKRAMFIARDQSSKLNAALTQARHEEVGIKKYMWSASLDERVRESHAEKDGQIFEYANPPADTDHPGHDFNCRCVQI,not soluble
18,DLKYILETKLEEERNHLEELLEKVEEDYEGINYDEVLEALKLFKDNYELPKSKIKRKIRIFLIKENILFLNPQKGTLKPQSYLVWNAIKRML,soluble
19,DLQNMDATNWLGNSVSEGFIHQFQRRGFKVVDFKTTGSIQVTQQGDFALSRDWQDLAQEQQIQYVLTGTMLRQEGGVLVNARVVGMQSRVVVATAQGFLPADRIGRDLDTLNSIRTQDGVLIRSDPTIRQPYTVILRP,not soluble
20,DMPVEKIQEAEMAVEPKDGNMVEQPNDPVTNICQAADKQLVTLVEWAKRIPHFSDLPIDDQVILLRAGWNELLIAAFSHRSIDVKDGILLASGLHVHRSSAHQAGVGTIFDRVLTELVAKMRDMKMDKTELGCLRAIVLFNPDAKGLTDPSLVESLREKVYASLEEYCKQQYPEQPGRFAKLLLRLPALRSIGLKCLEHLFFFKLIGDTPIDTFLMEML,soluble
21,DNARTNPLKDLEFFLHSFRGLLEKAPVVVGITKMDIRSQPGIDVYHKYLAKHNLNVPVFEIDARKEDDVKQLVSAMLFSIDPGLEV,not soluble
22,DPDIQSTVEAMLLDRVDALPPKVSMAVLVMDNDSLEVKAYAGSADFTDDSRYAHVDMVRGVRSPGSTLKPFLYALALDEGLIHSESLLLDAPLSFGGYAPGNFQAAFAGPVSVAQALQRSLNVPAVDLLDRVGPARFASVMLAGGVHLRMPAGAVPNLSLILGGGGTTLEELVGAYRALARGGLSGRPRLRASQPRIEARLMSPGAAWIVRDILELGGHPDRPLFQGAAAGRQLAWKTGTSFGFRDAWAVGVTDRYTIGAWVGRPDGTPNPGFFGANVAAPLLQDIVAALPAGAPVPRT,not soluble
23,DPEDPAEDIIQTAGTIAHRGADRQDGGWGSGGPKFPQNGRLHALLRAYADGGQEDYLNVVEETLDVMADRGLYDHVGGGFHRYATDQQWAVPHFEKMLYDNAEIPRAFLAGYQAIGSERYASVVRETFEFVQRELQHPDGGFFSTLDAESAPHSESRSDSEQSSGESPRDDPDGETEEGLFYVWTPEQVHDAVDDETDADIFCDYYGVTEQGNFEGATVLAVRKPVPVLAEEYERSEDEITASLQRALNETFEARKDRPRPARDEKVLAGWNGLMIRALAEGAIVLDDQYADVAADALSFVREHLWDADAGRLNRRYKDDDVAIDGYLEDYAFLGRGALTLFEATGDVEHLAFAMDLGQAITEAFWDDEQGTLFFTPTGGESLVARPQELTD,not soluble
24,DQNAYHSIRTLLKSPTTLGEVKEHITHALTITPTKGSVINAFEHMWGYFKKQCTQYEKQHSRELKALYIENQIDYFELLSFLKNLADKYAVEYLQQSTILNITK,not soluble
25,DQVLKGAALVGHNVLVPSAQVAIDATGSAKGVVAATSAGFVNFEITDANGTFVKQLSVPASAAGEVSFAWDGTDANGNRMAAGKYGITATQTDTAGAKSKLATYVDAPVDSVTIGSDGLYLNLTGLGTSPLANVLRVS,soluble
26,DRWIRPRGAFGGLPSLKSSFVLSESTVPGTNETVKTFLPYGSVINYYGYVKPGQAPDGLVDGNKKAYYLYVWIPAVIAEMGVRMISPTGEIGEPGDGDLVSDAFKAATPEEKSMPHWFDTWIRVERMSAIMPDQIAKAAKAKPVQKLDDDDDGDDTYKEERHNKYNSLTRIKIPNPPKSFDDLKNIDTKKLLVRGLYRISFTTYKPGEVKGSFVASVGLLFPPGIPGVSPLIHSNPEELQKQAIAAEESLKKAASDATK,soluble
27,DSGYSRETRALLFRAYRHDPTFAYLFNAEREGYEQRVLATIRQLVKQHFLQNQPALGLFLEDRLVGVALIAPPLRRLGVTESWAWRLRMVMDTGLGCTQRYLAYYNAVLACLPSETVHVLPLIGLDPEFQGQKMGQDLSEQLLAALHDWCAVDENSQGIVVDTGNPRYLEFYKRQGYEEIGEIAVGPV,not soluble
28,DVQLQESGGGLVQAGGSLRLSCAASGATGSTYDMGWFRQAPGKERESVAAINWGSAGTYYASSVRGRFTISRDNAKKTVYLQMNSLKPEDTAVYTCGAGRIGRSVFNLRRESWVTWWGQGTQVTVSS,soluble
29,DVQLQQSGPELKKPGETVKLSCKASGYTFTNFGLNWMKQAPGKGLKWMGWINTYTGESTYADDFKGRFAFSLETSASTAYLQINNVKNEDTATYFCARGFYYYGSRYFYFDYWGQGTTLTVSSAKTTAPSVYPLAPVCGDTTGSSVTLGCLVKGYFPEPVTLTWNSGSLSSGVHTFPAVLQSDLYTLSSSVTVTSSTWPSQSITCNVAHPASSTKVDKKIEPRGP,soluble
